From article PMC5125079 (Mycopathologia, 2011)

B1: Cryptococcus neoformans recombinant antiphagocytic protein 1 (rApp1) (natural protein)
chain: MMSSATAELCFDCANCVEMLPKGTTKSVTRPEILERLTRIENHIEVQTALLSTMAASKDYKKKVYTDDDDELEEPEVQLCNMTCEMAALKTYKPQTKVSNHKIVIEAALGRLDHVNGESSIRWAQSVILGLQAAETLQNDKQMMELARVIGCLEACELRWAGDWRAGVASITLKELRTLMI
B2: App1 in total protein from C. neoformans WT (H99) (natural protein)
chain: B1 chain

What was measured:
[1] = target: the molecule itself; experiment: SDS-PAGE with tryptic digestion and mass spectrometry of the bands
[2] = target: the molecule itself; experiment: SDS-PAGE and Western blot

Protein	stoichiometry N [1]	stoichiometry N [2]
B1	2	
B2		2
